Earlier results on two substances are cited in paper PMC4082410.

Bounds are passed on as bounds.

What all share (assay): kinetics
Series [1] concerns the target preMADH (Paracoccus denitrificans) (UniProt P22619).
Series [2] concerns the target quinol MADH (Paracoccus denitrificans) (UniProt P22619).
Series [3] addresses quinone MADH (Paracoccus denitrificans) (UniProt P22619).

One may read the Kd as the concentration at which binding is half-saturated. In the case of bis-Fe(IV) MauG (from UniProt Q51658), the Kd is below 1.5 µM in series [1] and 11.2 µM in series [2].
On to diferrous MauG (from UniProt Q51658), for which the Kd in series [3] was 10.1 µM.
